Source: patent US20230241243A1, “CARRIER PARTICLE-DRUG CONJUGATES, SELF-IMMOLATIVE LINKERS, AND USES THEREOF” (priority 2020, published 2023)

test: Drug-release assay of nanoparticle-conjugated linker-payloads under cleavage conditions (Cat-B, redox-responsive or pH-sensitive cleaving study), RP-HPLC; type: in vitro ADME; settings: linker-payload conjugated to DBCO-functionalized silica nanoparticle, 37° C., 24 hours
Protocol: To assess the drug releasing profile of exemplary linker-drug conjugates, the linker-drug conjugates were each conjugated to a DBCO-functionalized ultrasmall silica nanoparticle via a click chemistry reaction between the azide groups on the linker-drug conjugate precursors and the dibenzocyclooctyne (DBCO) groups of the nanoparticles. The resulting drug-nanoparticle-conjugates were then incubated under the desired releasing conditions for release kinetics tests.
The amount of released drugs vs non-released drugs was measured using reverse phase HPLC by analyzing the area under curve (AUC) (FIG. 10A and FIG. 10B).
General Method: A Waters Xbridge Peptide BEH C18 column with 4.6 mm×50 mm dimensions, a particle size of 5 μm, and a pore size of 300 A was used (part number 186003622). Acetonitrile (VWR HiPerSolv Chromanorm, UHPLC Grade) was used as received without further preparation, […] trifluoroacetic acid in deionized water was prepared by adding 1 mL of trifluoroacetic acid (HPLC grade, Millipore-Sigma) into 999 mL 18.2 MΩ·cm deionized water that was generated using an IQ7000 Millipore deionized water system and passed through a 0.2 μm filter before use. The seal wash used for the system was composed of 90% 18.2 MΩ·cm deionized water and 10% methanol (HPLC grade, VWR). The injection needle was washed using a mixture of 25 vol % 18.2 MΩ·cm deionized water, 25 vol % acetonitrile, 25 vol % methanol, and 25 vol % 2-propanol. Samples were prepared in a concentration range of 0.25 to 2 μM and the injection volume ranges from 60 μL to 10 μL, respectively. Higher sample concentration can be used if detector signal is low. Vials used for all injections are fresh Waters Total Recovery vials with screw caps that have pre-slit PTFE septa (part number 186000385C).
Method for Protease-cleavable and Redox-responsive Linkers: Before any sample injections were started, the PDA lamp was turned on and allowed to warm up for at least 30 minutes. The system and column were equilibrated with 95% 0.01% TFA in deionized water, 5% acetonitrile for at least 10 minutes at a flow rate of 1.0 mL/min after the PDA lamp had warmed up. Two blank injections, with injection volumes of 10 μL containing only 18.2 MΩ·cm deionized water, were performed before the injection of any samples for analysis. The gradient used to elute protease-cleavable and redox-sensitive linkers conjugated to hybrid silica nanoparticles, and their components began at 95% 0.01% TFA in deionized water and 5% acetonitrile and linearly changed to 15% 0.01% TFA in deionized water, 85% acetonitrile over 8 minutes. Acetonitrile composition was increased to 95% over an additional minute and held at 95% for an additional 2 minutes to ensure that any strongly retained compounds are eluted. The composition of the solvent was then changed back to the starting composition of the gradient over an additional minute and allowed to equilibrate for 3 minutes before another injection began. Between sample injections a blank injection was run to ensure that no carryover occurred.
Method for pH-sensitive Linkers: Before any sample injections were started, the PDA lamp was turned on and allowed to warm up for at least 30 minutes. A gradient of pure deionized water and acetonitrile was used, all other consumables including column and vials were the same as for the method to purify Cat-B sensitive and redox-responsive linkers elaborated on above. Briefly the gradient composition began at 95% deionized water and 5% acetonitrile at a flow rate of 1.0 mL/min (not changed throughout the method). The composition was changed from this starting composition to 15% deionized water and 85% acetonitrile over a 12-minute period, during which the retained drug-linkers, released drug, free drug linker, and any other impurities eluted. At the 12-minute mark the composition was rapidly changed to 5% deionized water and 95% acetonitrile over the course of one minute. […]

SMILES | % of Payload Release in 24 Hours Under Cleavage Conditions
CC[C@@]1(O)C(=O)OCc2c1cc1n(c2=O)Cc2c-1nc1cc(F)c(C)c3c1c2[C@@H](NCc1ccc(NC(=O)[C@H](CCCNC(N)=O)NC(=O)[C@@H](NC(=O)CCOCCOCCOCCOCCOCCOCCOCCOCCOCCN=[N+]=[N-])C(C)C)cn1)CC3 [Example 46, 1-azido-N-((S)-1-(((S)-1-((6-((((1S,9S)-9-ethyl-5-fluoro-9-hydroxy-4-methyl-10,13-dioxo-2,3,9,10,13,15-hexahydro-1H,12H-benzo[de]pyrano[3′,4′:6,7]indolizino[1,2-b]quinolin-1-yl)amino)methyl)pyridin-3-yl)amino)-1-oxo-5-ureidopentan-2-yl)amino)-3-methyl-1-oxobutan-2-yl)-3,6,9,12,15,18,21,24,27-nonaoxatriacontan-30-amide] | + (‘+’ indicates 5-25% release)
CC[C@@]1(O)C(=O)OCc2c1cc1n(c2=O)Cc2c-1nc1cc(F)c(C)c3c1c2[C@@H](NCc1c(F)cc(NC(=O)[C@H](CCCNC(N)=O)NC(=O)[C@@H](NC(=O)CCOCCOCCOCCOCCOCCOCCOCCOCCOCCOCCOCCN=[N+]=[N-])C(C)C)cc1F)CC3 [Example 23, 1-azido-N-((S)-1-(((S)-1-((4-((((1S,9S)-9-ethyl-5-fluoro-9-hydroxy-4-methyl-10,13-dioxo-2,3,9,10,13,15-hexahydro-1H,12H-benzo[de]pyrano[3′,4′:6,7]indolizino[1,2-b]quinolin-1-yl)amino)methyl)-3,5-difluorophenyl)amino)-1-oxo-5-ureidopentan-2-yl)amino)-3-methyl-1-oxobutan-2-yl)-3,6,9,12,15,18,21,24,27,30,33-undecaoxahexatriacontan-36-amid] | + (‘+’ indicates 5-25% release)
CCc1c2c(nc3ccc(OCCCNC(=O)OCCSSCCNC(=O)CCOCCOCCOCCOCCOCCOCCOCCOCCOCCN=[N+]=[N-])cc13)-c1cc3c(c(=O)n1C2)COC(=O)[C@]3(O)CC [Example 61, 37-Azido-8-oxo-11,14,17,20,23,26,29,32,35-nonaoxa-3,4-dithia-7-azaheptatriacontyl (S)-(3-((4,11-diethyl-4-hydroxy-3,14-dioxo-3,4,12,14-tetrahydro-1H-pyrano[3′,4′:6,7]indolizino[1,2-b]quinolin-9-yl)oxy)propyl)carbamate] | + (‘+’ indicates 5-25% release)
CCc1c2c(nc3ccc(OCCCSSC(C)(C)CNC(=O)CCOCCOCCOCCOCCOCCOCCOCCOCCOCCOCCOCCN=[N+]=[N-])cc13)-c1cc3c(c(=O)n1C2)COC(=O)[C@]3(O)CC [Example 56, (S)-1-azido-N-(2-((3-((4,11-diethyl-4-hydroxy-3,14-dioxo-3,4,12,14-tetrahydro-1H-pyrano[3′,4′:6,7]indolizino[1,2-b]quinolin-9-yl)oxy)propyl)disulfanyl)-2-methylpropyl)-3,6,9,12,15,18,21,24,27,30,33-undecaoxahexatriacontan-36-amide] | + (‘+’ indicates 5-25% release)
CC[C@@]1(O)C(=O)OCc2c1cc1n(c2=O)Cc2c-1nc1cc(F)c(C)c3c1c2[C@@H](NC(=O)OCc1ccc(NC(=O)[C@H](CCCNC(N)=O)NC(=O)[C@@H](NC(=O)CCOCCOCCOCCOCCOCCN=[N+]=[N-])C(C)C)cc1)CC3 [Example 9, 4-((20S,23S)-1-azido-20-isopropyl-18,21-dioxo-23-(3-ureidopropyl)-3,6,9,12,15-pentaoxa-19,22-diazatetracosan-24-amido)benzyl ((1S,9S)-9-ethyl-5-fluoro-9-hydroxy-4-methyl-10,13-dioxo-2,3,9,10,13,15-hexahydro-1H,12H-benzo[de]pyrano[3′,4′:6,7]indolizino[1,2-b]quinolin-1-yl)carbamate] | ++++ (‘++++’ indicates 76-100% release)
CCc1c2c(nc3ccc(OCCCNC(=O)OCc4ccc(NC(=O)[C@H](CCCNC(N)=O)NC(=O)[C@@H](NC(=O)CCOCCOCCOCCOCCOCCOCCOCCOCCOCCN=[N+]=[N-])C(C)C)cc4)cc13)-c1cc3c(c(=O)n1C2)COC(=O)[C@]3(O)CC [Example 16, 4-((32S,35S)-1-azido-32-isopropyl-30,33-dioxo-35-(3-ureidopropyl)-3,6,9,12,15,18,21,24,27-nonaoxa-31,34-diazahexatriacontan-36-amido)benzyl (3-(((S)-4,11-diethyl-4-hydroxy-3,14-dioxo-3,4,12,14-tetrahydro-1H-pyrano[3′,4′:6,7]indolizino[1,2-b]quinolin-9-yl)oxy)propyl)carbamate] | +++ (‘+++’ indicates 51-75% release)
CCc1c2c(nc3ccc(OCc4c(F)cc(NC(=O)[C@H](CCCNC(N)=O)NC(=O)[C@@H](NC(=O)CCOCCOCCOCCOCCOCCOCCOCCOCCOCCN=[N+]=[N-])C(C)C)cc4F)cc13)-c1cc3c(c(=O)n1C2)COC(=O)[C@]3(O)CC [Example 21, 1-Azido-N-((S)-1-(((S)-1-((4-((((S)-4,11-diethyl-4-hydroxy-3,14-dioxo-3,4,12,14-tetrahydro-1H-pyrano[3′,4′:6,7]indolizino[1,2-b]quinolin-9-yl)oxy)methyl)-3,5-difluorophenyl)amino)-1-oxo-5-ureidopentan-2-yl)amino)-3-methyl-1-oxobutan-2-yl)-3,6,9,12,15,18,21,24,27-nonaoxatriacontan-30-amide] | + (‘+’ indicates 5-25% release)
CCc1c2c(nc3ccc(OCCCNC(=O)OCc4ccc(NC(=O)[C@H](CCCCN)NC(=O)[C@@H](NC(=O)CCOCCOCCOCCOCCOCCOCCOCCOCCOCCN=[N+]=[N-])C(C)C)cc4)cc13)-c1cc3c(c(=O)n1C2)COC(=O)[C@]3(O)CC [Example 31, 4-((32S,35S)-35-(4-aminobutyl)-1-azido-32-isopropyl-30,33-dioxo-3,6,9,12,15,18,21,24,27-nonaoxa-31,34-diazahexatriacontan-36-amido)benzyl (3-(((S)-4,11-diethyl-4-hydroxy-3,14-dioxo-3,4,12,14-tetrahydro-1H-pyrano[3′,4′:6,7]indolizino[1,2-b]quinolin-9-yl)oxy)propyl)carbamate] | + (‘+’ indicates 5-25% release)
CC[C@@]1(O)C(=O)OCc2c1cc1n(c2=O)Cc2c-1nc1cc(F)c(C)c3c1c2[C@@H](NC(=O)C(O)c1ccc(NC(=O)[C@H](CCCCN)NC(=O)[C@H](Cc2ccccc2)NC(=O)CCOCCOCCOCCOCCOCCOCCN=[N+]=[N-])cc1)CC3 (single isomer, unassigned) [Example 29-Peak 1] | +++ (‘+++’ indicates 51-75% release)
CCc1c2c(nc3ccc(OC(C(=O)OC)c4ccc(NC(=O)[C@H](CCCNC(N)=O)NC(=O)[C@@H](NC(=O)CCOCCOCCOCCOCCOCCN=[N+]=[N-])C(C)C)cc4)cc13)-c1cc3c(c(=O)n1C2)COC(=O)[C@]3(O)CC (stereo partly drawn) [Example 12, methyl 2-(4-((20S,23S)-1-azido-20-isopropyl-18,21-dioxo-23-(3-ureidopropyl)-3,6,9,12,15-pentaoxa-19,22-diazatetracosan-24-amido)phenyl)-2-(((S)-4,11-diethyl-4-hydroxy-3,14-dioxo-3,4,12,14-tetrahydro-1H-pyrano[3′,4′:6,7]indolizino[1,2-b]quinolin-9-yl)oxy)acetate] | + (‘+’ indicates 5-25% release)
